Publication PMC12427885 (Foods, 2025)
One block for each compound: values may come before it.

Experiments:
[1] = target: T1, DAO-GH (Glutamicibacter halophytocola, UniProt Z9MBQ1XXX8); experiment: DA-67/horseradish peroxidase coupled H2O2 assay, […] nm; Michaelis-Menten nonlinear regression; assay type: biochemical; details: substrate inhibition by tyramine; second site; 25 mM potassium phosphate pH 6.8, 37 °C; partially purified enzyme
T1 construct: gene from G. halophytocola isolate, codon-optimized, intracellular expression in Komagataella phaffii; partially purified (PEI, ammonium sulfate, HIC)
T1 sequence (Z9MBQ1XXX8 1-653): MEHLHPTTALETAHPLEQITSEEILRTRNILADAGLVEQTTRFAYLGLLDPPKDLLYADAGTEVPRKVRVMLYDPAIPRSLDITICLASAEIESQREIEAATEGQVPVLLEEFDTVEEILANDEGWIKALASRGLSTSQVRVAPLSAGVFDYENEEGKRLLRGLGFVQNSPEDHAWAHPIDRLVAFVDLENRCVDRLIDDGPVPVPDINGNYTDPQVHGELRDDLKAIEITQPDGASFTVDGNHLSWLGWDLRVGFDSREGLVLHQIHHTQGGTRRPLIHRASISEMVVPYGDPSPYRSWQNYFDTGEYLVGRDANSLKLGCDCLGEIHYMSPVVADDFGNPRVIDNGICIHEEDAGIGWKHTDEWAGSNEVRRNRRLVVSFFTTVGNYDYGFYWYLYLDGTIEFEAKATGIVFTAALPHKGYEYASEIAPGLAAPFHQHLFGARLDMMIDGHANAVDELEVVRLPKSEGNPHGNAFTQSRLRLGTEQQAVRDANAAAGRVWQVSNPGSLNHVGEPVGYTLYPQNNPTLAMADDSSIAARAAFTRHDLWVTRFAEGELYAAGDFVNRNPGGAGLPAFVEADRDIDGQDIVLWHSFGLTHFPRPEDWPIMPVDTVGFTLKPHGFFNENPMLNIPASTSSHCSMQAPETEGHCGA

[2] = target: diamine oxidase from Glutamicibacter halophytocola (DAO-GH) (Glutamicibacter halophytocola); experiment: SEC; HiLoad 16/600 Superdex 200 prep grade; 50 mM sodium phosphate, 150 mM NaCl, pH 7; 1 mL/min; HIC-purified (partially purified) DAO-GH; fractions analysed for DAO activity; calibrated with the high molecular weight gel filtration kit; native mass compared with the monomer's mass
[3] = system: NCCc1ccc(O)cc1; experiment: purified protein; details: apparent, 25 mM potassium phosphate pH 6.8, 37 °C, 0.005-3 mM tyramine, partially purified enzyme

Compound: NCCc1ccc(O)cc1 [tyramine]
- Ki [1]: 10.4 ± 4.0 mM

- stoichiometry N [2]: 2
Compound: diamine oxidase from Glutamicibacter halophytocola (DAO-GH) (enzyme)

Compound: DAO-GH (Glutamicibacter halophytocola)
- Km [3]: 9 ± 0.2 µM
